The values below come from PMC5702669.

Assay [1] concerns the target full-length PfMyoA heavy chain with C-terminal biotin tag and FLAG tag (P. falciparum) (UniProt Q8IDR3).
The target of assay [2] is skeletal muscle actin (UniProt P68135).

As for “P. falciparum essential light chain (PfELC), untagged (from UniProt Q8IJM4 1-134) (natural protein)”, in assay [1], the in vitro motility speed of PfMyoA-MTIP with PfELC, no calcium was 3.8 μm/s and the in vitro motility speed of PfMyoA-MTIP with PfELC, with calcium (100 μM) came to 3.8 μm/s. For “PfMD, PfMyoA motor domain (Met-1–Lys-768) with C-terminal FLAG tag (from UniProt Q8IDR3 1-768) (domain or fragment)”, the Km (actin concentration at half-maximal activity) of the actin-activated ATPase, 30 °C, 5 mM NaCl in assay [2] was found to be 13 µM. For “T. gondii essential light chain TgELC1 (from UniProt A0A125YUL9 1-87) (natural protein)”, the in vitro motility speed of PfMyoA-MTIP with TgELC1, no calcium in assay [1] worked out at 3.3 μm/s. On to “PfMD T417A (phospho-null at the TEDS site) (from UniProt Q8IDR3 1-768) (domain or fragment)”, for which the Km (actin concentration at half-maximal activity) of the actin-activated ATPase, 30 °C, 5 mM NaCl in assay [2] was determined as 9.8 µM. The same measure, in the same setting: the value for “PfMD T417D (phosphomimic at the TEDS site) (from UniProt Q8IDR3 1-768) (domain or fragment)” was 4.4 µM.

In the case of “PF3D7_0627200, putative myosin light chain (PFF1320c) (from UniProt C6KTA8 1-139) (natural protein)”, in assay [1], the in vitro motility speed of PfMyoA-MTIP with PF3D7 0627200 added, no calcium was determined as 1.1 μm/s and the in vitro motility speed of PfMyoA-MTIP with PF3D7 0627200 added, with calcium is 0.6 μm/s. Turning to “PF3D7_0107000, putative centrin-1 (PfPC1), N-terminal His6 tag (natural protein)”, the in vitro motility speed of PfMyoA-MTIP with PF3D7 0107000 added, no calcium in assay [1] is 1.5 μm/s.
